From patent publication US6416758

Molecular target: VEGF:sFlk-1 complex (VEGF associated with its receptor) (human; mouse) (UniProt P15692)
Test: capture ELISA: antibody coated on wells, VEGF complexed with biotinylated sFlk-1 titrated, peroxidase-avidin; concentration giving 50% maximal binding; extrapolated value (*)

Sequence of VEGF:sFlk-1 complex (VEGF associated with its receptor) (human; mouse) (P15692 other isoform, or with tags, fused parts or gaps limits assumed, chain 1 of 2): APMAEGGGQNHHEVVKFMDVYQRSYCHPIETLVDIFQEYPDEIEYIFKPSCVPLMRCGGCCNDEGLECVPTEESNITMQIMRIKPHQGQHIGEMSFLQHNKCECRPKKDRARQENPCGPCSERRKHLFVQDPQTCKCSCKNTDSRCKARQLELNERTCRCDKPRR
Sequence of VEGF:sFlk-1 complex (VEGF associated with its receptor) (human; mouse) (P35918 20-762 limits assumed, chain 2 of 2, further chain): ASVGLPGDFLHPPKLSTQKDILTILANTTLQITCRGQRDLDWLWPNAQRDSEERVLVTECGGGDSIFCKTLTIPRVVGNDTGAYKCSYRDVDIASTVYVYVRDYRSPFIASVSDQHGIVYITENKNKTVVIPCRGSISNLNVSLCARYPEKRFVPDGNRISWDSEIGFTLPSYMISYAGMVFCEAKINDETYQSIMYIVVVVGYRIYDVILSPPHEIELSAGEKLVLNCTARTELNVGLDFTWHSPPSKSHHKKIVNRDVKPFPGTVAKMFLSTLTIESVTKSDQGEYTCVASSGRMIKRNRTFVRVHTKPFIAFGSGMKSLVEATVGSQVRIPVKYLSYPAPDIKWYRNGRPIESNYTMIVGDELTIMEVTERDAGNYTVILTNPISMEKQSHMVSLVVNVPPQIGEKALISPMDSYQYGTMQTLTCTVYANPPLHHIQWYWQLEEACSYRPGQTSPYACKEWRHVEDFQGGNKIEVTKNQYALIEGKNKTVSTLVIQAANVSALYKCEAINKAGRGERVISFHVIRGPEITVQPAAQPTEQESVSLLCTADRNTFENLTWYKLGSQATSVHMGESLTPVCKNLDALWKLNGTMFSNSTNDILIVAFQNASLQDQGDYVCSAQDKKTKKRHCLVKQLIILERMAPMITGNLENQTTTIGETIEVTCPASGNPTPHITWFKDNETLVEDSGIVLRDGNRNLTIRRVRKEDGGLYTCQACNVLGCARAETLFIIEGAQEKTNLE
Sequence of A4.6.1 (mouse anti-human VEGF monoclonal antibody, Genentech) (VH): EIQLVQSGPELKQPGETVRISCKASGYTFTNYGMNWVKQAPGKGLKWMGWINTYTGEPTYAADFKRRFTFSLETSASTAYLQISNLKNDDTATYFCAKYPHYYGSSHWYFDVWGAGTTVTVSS
Sequence of A4.6.1 (mouse anti-human VEGF monoclonal antibody, Genentech) (VL): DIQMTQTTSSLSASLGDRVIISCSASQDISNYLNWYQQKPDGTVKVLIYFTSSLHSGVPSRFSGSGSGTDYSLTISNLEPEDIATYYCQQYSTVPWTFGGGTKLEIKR

With “A4.6.1 (mouse anti-human VEGF monoclonal antibody, Genentech)” the EC50 was 500 nM.
